From US20060263802A1 (CRUCELL HOLLAND B V, published 2006)

Experiments:
Test in all cases: PEPSCAN ELISA, looped peptide, antibody 10 µg/ml
[1] = target: looped/cyclic peptide … (rabies virus strain ERA)
[2] = target: looped/cyclic peptide […] (rabies virus strain ERA)
[3] = target: looped/cyclic peptide … (rabies virus strain ERA); remark: listed apart in the source
[4] = target: looped/cyclic peptide … (rabies virus strain ERA); remark: listed apart in the source
[5] = target: looped/cyclic peptide … (rabies virus strain ERA); remark: listed apart in the source
[6] = target: looped/cyclic peptide … (rabies virus strain ERA); remark: listed apart in the source
[7] = target: looped/cyclic peptide … (rabies virus strain ERA); remark: listed apart in the source
[8] = target: looped/cyclic peptide … (rabies virus strain ERA); remark: listed apart in the source
[9] = target: looped/cyclic peptide … (rabies virus strain ERA); remark: listed apart in the source
[10] = target: looped/cyclic peptide … (rabies virus strain ERA); remark: listed apart in the source
[11] = target: looped/cyclic peptide … (rabies virus strain ERA); remark: listed apart in the source
[12] = target: looped/cyclic peptide … (rabies virus strain ERA); remark: listed apart in the source
[13] = target: looped/cyclic peptide … (rabies virus strain ERA); remark: listed apart in the source
[14] = target: looped/cyclic peptide … (rabies virus strain ERA); remark: listed apart in the source
[15] = target: looped/cyclic peptide … (rabies virus strain ERA); remark: listed apart in the source
[16] = target: looped/cyclic peptide … (rabies virus strain ERA); remark: listed apart in the source
[17] = target: looped/cyclic peptide … (rabies virus strain ERA); remark: listed apart in the source
[18] = target: looped/cyclic peptide … (rabies virus strain ERA); remark: listed apart in the source
[19] = target: looped/cyclic peptide … (rabies virus strain ERA); remark: listed apart in the source
[20] = target: looped/cyclic peptide … (rabies virus strain ERA); remark: listed apart in the source
[21] = target: looped/cyclic peptide … (rabies virus strain ERA); remark: listed apart in the source
[22] = target: looped/cyclic peptide … (rabies virus strain ERA); remark: listed apart in the source
[23] = target: looped/cyclic peptide … (rabies virus strain ERA); remark: listed apart in the source
[24] = target: looped/cyclic peptide … (rabies virus strain ERA); remark: listed apart in the source
[25] = target: looped/cyclic peptide … (rabies virus strain ERA); remark: listed apart in the source
[26] = target: looped/cyclic peptide … (rabies virus strain ERA); remark: listed apart in the source
[27] = target: looped/cyclic peptide … (rabies virus strain ERA); remark: listed apart in the source
[28] = target: looped/cyclic peptide … (rabies virus strain ERA); remark: listed apart in the source
[29] = target: looped/cyclic peptide … (rabies virus strain ERA); remark: listed apart in the source
[30] = target: looped/cyclic peptide … (rabies virus strain ERA); remark: listed apart in the source
[31] = target: looped/cyclic peptide … (rabies virus strain ERA); remark: listed apart in the source
[32] = target: looped/cyclic peptide … (rabies virus strain ERA); remark: listed apart in the source
[33] = target: looped/cyclic peptide … (rabies virus strain ERA); remark: listed apart in the source
[34] = target: looped/cyclic peptide … (rabies virus strain ERA); remark: listed apart in the source
[35] = target: looped/cyclic peptide … (rabies virus strain ERA); remark: listed apart in the source
[36] = target: looped/cyclic peptide … (rabies virus strain ERA); remark: listed apart in the source
[37] = target: looped/cyclic peptide … (rabies virus strain ERA); remark: listed apart in the source
[38] = target: looped/cyclic peptide … (rabies virus strain ERA); remark: listed apart in the source
[39] = target: looped/cyclic peptide … (rabies virus strain ERA); remark: listed apart in the source
[40] = target: looped/cyclic peptide … (rabies virus strain ERA); remark: listed apart in the source
[41] = target: looped/cyclic peptide … (rabies virus strain ERA); remark: listed apart in the source
[42] = target: looped/cyclic peptide … (rabies virus strain ERA); remark: listed apart in the source
[43] = target: looped/cyclic peptide … (rabies virus strain ERA); remark: listed apart in the source
[44] = target: looped/cyclic peptide … (rabies virus strain ERA); remark: listed apart in the source
[45] = target: looped/cyclic peptide … (rabies virus strain ERA); remark: listed apart in the source
[46] = target: looped/cyclic peptide … (rabies virus strain ERA); remark: listed apart in the source
[47] = target: looped/cyclic peptide … (rabies virus strain ERA); remark: listed apart in the source
[48] = target: looped/cyclic peptide … (rabies virus strain ERA); remark: listed apart in the source
[49] = target: looped/cyclic peptide … (rabies virus strain ERA); remark: listed apart in the source
[50] = target: looped/cyclic peptide … (rabies virus strain ERA); remark: listed apart in the source
[51] = target: looped/cyclic peptide … (rabies virus strain ERA); remark: listed apart in the source
[52] = target: looped/cyclic peptide … (rabies virus strain ERA); remark: listed apart in the source
[53] = target: looped/cyclic peptide … (rabies virus strain ERA); remark: listed apart in the source
[54] = target: looped/cyclic peptide … (rabies virus strain ERA); remark: listed apart in the source
[55] = target: looped/cyclic peptide … (rabies virus strain ERA); remark: listed apart in the source
[56] = target: looped/cyclic peptide … (rabies virus strain ERA); remark: listed apart in the source
[57] = target: looped/cyclic peptide … (rabies virus strain ERA); remark: listed apart in the source
[58] = target: looped/cyclic peptide … (rabies virus strain ERA); remark: listed apart in the source
[59] = target: looped/cyclic peptide … (rabies virus strain ERA); remark: listed apart in the source
[60] = target: looped/cyclic peptide … (rabies virus strain ERA); remark: listed apart in the source
[61] = target: looped/cyclic peptide … (rabies virus strain ERA); remark: listed apart in the source

B1: human monoclonal antibody CRJA (antibody, V domains shown)
VH: EVQLLESGGGLVQPGGSLRLSCAASGFTFSNYAMSWVRQAPGKGLEWVSAISASGHSTYLADSVKGRFTISRDNSKNTLYLQMNSLRAEDTAVYYCAKDREVTMIVVLNGGFDYWGQGTRVTVSS
VL: EIVLTQSPATLSLSPGERATLACRASQTASRYLAWYQQKPGQAPRLLIYDTSNRATGIPARFSGSGSGTDFTLSISSLEPEDFAVYYCQQRFNWPWTFGQGTKVEFK
OD value [1]: 68 OD
OD value [2]: 186 OD
OD value [3]: 71 OD
OD value [4]: 110 OD
OD value [5]: 96 OD
OD value [6]: 93 OD
OD value [7]: 86 OD
OD value [8]: 72 OD
OD value [9]: 100 OD
OD value [10]: 58 OD
OD value [11]: 71 OD
OD value [12]: 98 OD
OD value [13]: 100 OD
OD value [14]: 71 OD
OD value [15]: 92 OD
OD value [16]: 65 OD
OD value [17]: 89 OD
OD value [18]: 78 OD
OD value [19]: 89 OD
OD value [20]: 100 OD
OD value [21]: 43 OD
OD value [22]: 45 OD
OD value [23]: 46 OD
OD value [24]: 54 OD
OD value [25]: 90 OD
OD value [26]: 88 OD
OD value [27]: 90 OD
OD value [28]: 72 OD
OD value [29]: 117 OD
OD value [30]: 83 OD
OD value [31]: 88 OD
OD value [32]: 89 OD
OD value [33]: 105 OD
OD value [34]: 38 OD
OD value [35]: 92 OD
OD value [36]: 79 OD
OD value [37]: 89 OD
OD value [38]: 45 OD
OD value [39]: 93 OD
OD value [40]: 45 OD
OD value [41]: 137 OD
OD value [42]: 58 OD
OD value [43]: 57 OD
OD value [44]: 78 OD
OD value [45]: 38 OD
OD value [46]: 82 OD
OD value [47]: 93 OD
OD value [48]: 84 OD
OD value [49]: 92 OD
OD value [50]: 83 OD
OD value [51]: 110 OD
OD value [52]: 57 OD
OD value [53]: 105 OD
OD value [54]: 41 OD
OD value [55]: 118 OD
OD value [56]: 92 OD
OD value [57]: 71 OD
OD value [58]: 98 OD
OD value [59]: 92 OD
OD value [60]: 74 OD
OD value [61]: 84 OD
